The target of this test is SNA I lectin from Sambucus nigra (Sambucus nigra). Kind of test: electrochemical impedance spectroscopy.
Sequence of SNA I lectin from Sambucus nigra (Sambucus nigra) (Q41358 29-289 limits assumed, chain 1 of 2): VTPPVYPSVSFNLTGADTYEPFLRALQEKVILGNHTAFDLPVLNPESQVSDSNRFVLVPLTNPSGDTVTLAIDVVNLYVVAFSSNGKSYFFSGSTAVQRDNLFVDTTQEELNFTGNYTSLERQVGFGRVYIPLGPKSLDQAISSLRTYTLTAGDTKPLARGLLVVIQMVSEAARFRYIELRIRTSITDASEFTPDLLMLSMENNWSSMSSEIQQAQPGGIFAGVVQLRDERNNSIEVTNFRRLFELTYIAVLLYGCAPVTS
Sequence of SNA I lectin from Sambucus nigra (Sambucus nigra) (Q41358 309-570 limits assumed, chain 2 of 2): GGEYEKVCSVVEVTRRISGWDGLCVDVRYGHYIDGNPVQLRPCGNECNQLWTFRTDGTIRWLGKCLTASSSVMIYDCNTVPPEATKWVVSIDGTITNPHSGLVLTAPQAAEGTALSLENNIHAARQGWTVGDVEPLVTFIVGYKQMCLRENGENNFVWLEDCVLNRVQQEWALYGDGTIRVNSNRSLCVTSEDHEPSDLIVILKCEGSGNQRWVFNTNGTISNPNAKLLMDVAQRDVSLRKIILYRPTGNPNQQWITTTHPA

B1: fetuin (natural protein)
chain: IPLDPVAGYKEPACDDPDTEQAALAAVDYINKHLPRGYKHTLNQIDSVKVWPRRPTGEVYDIEIDTLETTCHVLDPTPLANCSVRQQTQHAVEGDCDIHVLKQDGQFSVLFTKCDSSPDSAEDVRKLCPDCPLLAPLNDSRVVHAVEVALATFNAESNGSYLQLVEISRAQFVPLPVSVSVEFAVAATDCIAKEVVDPTKCNLLAEKQYGFCKGSVIQKALGGEDVRVTCTLFQTQPVIPQPQPDGAEAEAPSAVPDAAGPTPSAAGPPVASVVVGPSVVAVPLPLHRAHYDLRHTFSGVASVESSSGEAFHVGKTPIVGQPSIPGGPVRLCPGRIRYFKI
For the molecule B1, the specific sensitivity (OxASF subtracted) was 259 Ω decade^-1.

For the origin of these results see paper PMC4881810.
